Assay results as given in publication PMC3466309, “Initial Characterization of the Pf-Int Recombinase from the Malaria Parasite Plasmodium falciparum”.

Tests used:
[1] = molecular target: T1, His6-Pf-Int-C192 (Plasmodium falciparum 3D7, UniProt C0H5A8 192-490); experiment: EMSA supershift; 0.04 or 0.2 uM protein; anti-Pf-Int disrupts, anti-His5 supershifts; EMSA: 50 mM Tris pH 8, 150 mM NaCl, 0.1 mM EDTA, 5 mM DTT, 50 ug/ml BSA, 2% glycerol, 0.5% Tween 20, 10 ug/ml poly(dI-dC) unless omitted, 10 nM DNA, 20 min at 20 C; 5% gel in 0.5x TBE at 18 C; details: protein: recombinant; tags: N-terminal His6; label: 5'-DY682 on strand 1; blunt
T1 sequence: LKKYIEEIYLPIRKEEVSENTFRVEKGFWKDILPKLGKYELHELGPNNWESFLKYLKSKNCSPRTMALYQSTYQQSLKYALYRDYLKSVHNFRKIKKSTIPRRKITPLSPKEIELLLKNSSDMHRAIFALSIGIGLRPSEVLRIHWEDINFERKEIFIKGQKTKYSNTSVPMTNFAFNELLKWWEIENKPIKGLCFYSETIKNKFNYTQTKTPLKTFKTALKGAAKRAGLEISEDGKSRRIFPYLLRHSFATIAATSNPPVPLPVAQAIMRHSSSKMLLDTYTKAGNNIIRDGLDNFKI

[2] = molecular target: T2, Pf-Int-C162 (Plasmodium falciparum 3D7, UniProt C0H5A8 162-490); experiment: EMSA; 10 ug/ml poly(dI-dC); EMSA: 50 mM Tris pH 8, 150 mM NaCl, 0.1 mM EDTA, 5 mM DTT, 50 ug/ml BSA, 2% glycerol, 0.5% Tween 20, 10 ug/ml poly(dI-dC) unless omitted, 10 nM DNA, 20 min at 20 C; 5% gel in 0.5x TBE at 18 C; details: protein: recombinant; tags: N- or C-terminal His6 versions; label: 5'-DY682 on strand 1; blunt
T2 sequence: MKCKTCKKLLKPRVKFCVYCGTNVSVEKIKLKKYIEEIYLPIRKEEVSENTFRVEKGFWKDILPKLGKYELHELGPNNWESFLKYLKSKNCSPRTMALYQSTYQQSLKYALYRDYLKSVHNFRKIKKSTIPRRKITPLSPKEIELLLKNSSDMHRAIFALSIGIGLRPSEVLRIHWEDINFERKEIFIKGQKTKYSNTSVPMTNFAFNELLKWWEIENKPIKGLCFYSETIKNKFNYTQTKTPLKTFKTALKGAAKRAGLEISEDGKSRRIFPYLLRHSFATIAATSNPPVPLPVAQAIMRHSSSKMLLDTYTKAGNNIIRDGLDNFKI

[3] = molecular target: T3, Pf-Int-C192 (Plasmodium falciparum 3D7, UniProt C0H5A8 192-490); experiment: EMSA; 10 ug/ml poly(dI-dC); max shift at ~15-fold higher protein/DNA ratio than without; EMSA: 50 mM Tris pH 8, 150 mM NaCl, 0.1 mM EDTA, 5 mM DTT, 50 ug/ml BSA, 2% glycerol, 0.5% Tween 20, 10 ug/ml poly(dI-dC) unless omitted, 10 nM DNA, 20 min at 20 C; 5% gel in 0.5x TBE at 18 C; details: protein: recombinant; label: 5'-DY682 on strand 1; blunt
T3 sequence: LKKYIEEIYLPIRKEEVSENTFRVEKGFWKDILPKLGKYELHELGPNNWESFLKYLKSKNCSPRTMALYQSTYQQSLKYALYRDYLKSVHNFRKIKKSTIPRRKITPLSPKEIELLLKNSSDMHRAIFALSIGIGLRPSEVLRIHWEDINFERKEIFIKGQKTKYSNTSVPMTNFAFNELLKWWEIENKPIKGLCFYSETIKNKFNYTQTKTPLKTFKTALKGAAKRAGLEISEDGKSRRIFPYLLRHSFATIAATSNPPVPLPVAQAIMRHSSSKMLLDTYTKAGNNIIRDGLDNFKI

B1: Selex8 (dsDNA)
DNA 1: CAAACACACTGTGCGCGCGTCG
DNA 2: CGACGCGCGCACAGTGTGTTTG
[1]
  binding result: binds
[2]
  binding result: no binding
[3]
  binding result: binds
